Results: the supplement of paper PMC10065799, “High-throughput profiling of sequence recognition by tyrosine kinases and SH2 domains using bacterial peptide display” (eLife, 2023)

How the values were obtained:
c-Abl (mouse) = assay: phosphorylation enrichment, bacterial display (enrichment ratio); higher = better substrate or ligand; peptides without Tyr show the background
Fes = Fes (UniProt P07332); assay: as above
AncSZ = assay: as above
FGFR1 = FGFR1 (UniProt P11362); assay: as above
Fyn = Fyn (UniProt P06241); assay: as above
EPHB2 = EPHB2 (UniProt P29323); assay: as above
Jak2 = Jak2 (UniProt O60674); assay: as above
Fer (mouse) = assay: as above
FGFR3 = FGFR3 (UniProt P22607); assay: as above
Hck = Hck (UniProt P08631); assay: as above
c-Src = assay: as above
MERTK = MERTK (UniProt Q12866); assay: as above
EPHB1 = EPHB1 (UniProt P54762); assay: as above
c-Src SH2 = assay: SH2 binding enrichment of the phosphorylated peptide, bacterial display (enrichment ratio); higher = better substrate or ligand; peptides without Tyr show the background
SHP2-C SH2 = assay: as above
Grb2 SH2 = Grb2 SH2 (UniProt P62993); assay: as above
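Wherever SH2 binding enrichment of the phosphorylated peptide, bacterial display is given: peptide library displayed on the E. coli surface as eCPX fusions, selected cells deep-sequenced, score is each peptide's frequency after selection divided by its frequency in the input.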
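Wherever phosphorylation enrichment, bacterial display is given: 11-residue human phosphosite peptides and single-mutation variants displayed on the E. coli surface, counted by deep sequencing, each peptide's frequency after selection divided by its frequency in the unselected input library; frequency after pTyr selection over input frequency; kinase dosed for 20-30% of maximal phosphorylation in three min.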

Sequence of Fes (P07332 whole entry, looked up): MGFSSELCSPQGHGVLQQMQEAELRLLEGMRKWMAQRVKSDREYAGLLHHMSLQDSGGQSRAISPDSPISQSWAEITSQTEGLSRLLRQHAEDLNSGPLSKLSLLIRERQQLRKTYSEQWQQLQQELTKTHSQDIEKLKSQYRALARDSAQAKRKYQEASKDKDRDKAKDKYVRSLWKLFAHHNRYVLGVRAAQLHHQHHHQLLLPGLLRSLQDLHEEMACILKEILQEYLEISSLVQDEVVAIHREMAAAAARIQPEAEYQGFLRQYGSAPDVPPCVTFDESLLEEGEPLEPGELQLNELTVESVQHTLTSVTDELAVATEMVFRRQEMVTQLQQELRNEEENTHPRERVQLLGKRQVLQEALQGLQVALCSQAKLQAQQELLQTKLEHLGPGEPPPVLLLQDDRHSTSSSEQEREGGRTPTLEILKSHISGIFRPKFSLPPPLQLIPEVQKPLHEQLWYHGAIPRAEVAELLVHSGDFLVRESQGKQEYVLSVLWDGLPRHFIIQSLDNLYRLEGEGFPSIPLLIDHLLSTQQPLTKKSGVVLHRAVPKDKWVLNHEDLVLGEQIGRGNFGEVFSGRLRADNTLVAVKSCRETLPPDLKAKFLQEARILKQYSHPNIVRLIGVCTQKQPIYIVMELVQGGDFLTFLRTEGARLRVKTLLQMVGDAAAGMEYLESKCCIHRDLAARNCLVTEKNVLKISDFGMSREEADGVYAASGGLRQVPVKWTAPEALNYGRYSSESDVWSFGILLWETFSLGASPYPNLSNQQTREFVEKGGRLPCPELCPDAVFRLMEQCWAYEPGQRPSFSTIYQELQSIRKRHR
Sequence of Hck (P08631 whole entry, looked up): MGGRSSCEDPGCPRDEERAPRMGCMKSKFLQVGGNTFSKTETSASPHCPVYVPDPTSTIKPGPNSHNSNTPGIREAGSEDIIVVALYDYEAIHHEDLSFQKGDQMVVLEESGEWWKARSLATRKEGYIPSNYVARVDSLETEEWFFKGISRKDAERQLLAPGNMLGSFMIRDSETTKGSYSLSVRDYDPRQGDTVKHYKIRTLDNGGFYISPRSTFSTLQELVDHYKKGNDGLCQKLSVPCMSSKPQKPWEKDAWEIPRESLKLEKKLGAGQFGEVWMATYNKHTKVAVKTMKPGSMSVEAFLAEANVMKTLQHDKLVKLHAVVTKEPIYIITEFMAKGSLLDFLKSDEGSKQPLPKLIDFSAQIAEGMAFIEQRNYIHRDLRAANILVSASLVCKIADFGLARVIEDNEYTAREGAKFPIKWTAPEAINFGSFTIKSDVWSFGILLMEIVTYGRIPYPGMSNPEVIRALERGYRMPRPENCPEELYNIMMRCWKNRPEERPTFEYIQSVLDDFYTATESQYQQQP
Sequence of Grb2 SH2 (P62993 whole entry, looked up, the tested form may be a part): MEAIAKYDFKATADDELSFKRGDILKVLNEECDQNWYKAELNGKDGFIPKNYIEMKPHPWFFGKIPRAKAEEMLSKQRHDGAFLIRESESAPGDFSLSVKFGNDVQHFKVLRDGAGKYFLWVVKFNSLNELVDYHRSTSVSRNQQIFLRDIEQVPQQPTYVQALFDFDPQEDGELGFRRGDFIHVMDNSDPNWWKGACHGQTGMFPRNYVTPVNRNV
Sequence of EPHB1 (P54762 whole entry, looked up): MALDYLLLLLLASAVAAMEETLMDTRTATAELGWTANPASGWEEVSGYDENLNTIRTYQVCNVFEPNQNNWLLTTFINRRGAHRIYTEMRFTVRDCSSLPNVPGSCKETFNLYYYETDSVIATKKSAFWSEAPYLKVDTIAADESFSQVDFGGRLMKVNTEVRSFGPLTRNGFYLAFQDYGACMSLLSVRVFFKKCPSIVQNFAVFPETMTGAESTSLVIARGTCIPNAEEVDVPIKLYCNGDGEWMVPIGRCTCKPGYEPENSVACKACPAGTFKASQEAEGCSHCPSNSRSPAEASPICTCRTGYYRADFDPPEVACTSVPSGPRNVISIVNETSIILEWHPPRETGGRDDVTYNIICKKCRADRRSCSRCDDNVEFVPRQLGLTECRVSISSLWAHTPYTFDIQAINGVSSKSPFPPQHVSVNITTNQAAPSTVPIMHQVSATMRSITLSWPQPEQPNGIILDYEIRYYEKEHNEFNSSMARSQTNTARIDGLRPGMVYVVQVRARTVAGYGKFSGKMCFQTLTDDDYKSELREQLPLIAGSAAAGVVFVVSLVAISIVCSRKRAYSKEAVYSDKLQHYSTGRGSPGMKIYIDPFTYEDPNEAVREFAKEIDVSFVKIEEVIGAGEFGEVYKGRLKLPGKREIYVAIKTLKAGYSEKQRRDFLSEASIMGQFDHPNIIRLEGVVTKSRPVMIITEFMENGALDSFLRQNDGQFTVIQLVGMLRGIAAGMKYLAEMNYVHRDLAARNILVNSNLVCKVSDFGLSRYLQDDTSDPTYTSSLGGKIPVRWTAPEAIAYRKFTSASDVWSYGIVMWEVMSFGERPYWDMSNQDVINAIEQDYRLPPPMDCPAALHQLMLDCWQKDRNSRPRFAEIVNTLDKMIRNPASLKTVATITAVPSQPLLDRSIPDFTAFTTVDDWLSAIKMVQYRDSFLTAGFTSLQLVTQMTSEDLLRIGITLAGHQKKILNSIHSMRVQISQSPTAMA
Sequence of FGFR3 (P22607 whole entry, looked up): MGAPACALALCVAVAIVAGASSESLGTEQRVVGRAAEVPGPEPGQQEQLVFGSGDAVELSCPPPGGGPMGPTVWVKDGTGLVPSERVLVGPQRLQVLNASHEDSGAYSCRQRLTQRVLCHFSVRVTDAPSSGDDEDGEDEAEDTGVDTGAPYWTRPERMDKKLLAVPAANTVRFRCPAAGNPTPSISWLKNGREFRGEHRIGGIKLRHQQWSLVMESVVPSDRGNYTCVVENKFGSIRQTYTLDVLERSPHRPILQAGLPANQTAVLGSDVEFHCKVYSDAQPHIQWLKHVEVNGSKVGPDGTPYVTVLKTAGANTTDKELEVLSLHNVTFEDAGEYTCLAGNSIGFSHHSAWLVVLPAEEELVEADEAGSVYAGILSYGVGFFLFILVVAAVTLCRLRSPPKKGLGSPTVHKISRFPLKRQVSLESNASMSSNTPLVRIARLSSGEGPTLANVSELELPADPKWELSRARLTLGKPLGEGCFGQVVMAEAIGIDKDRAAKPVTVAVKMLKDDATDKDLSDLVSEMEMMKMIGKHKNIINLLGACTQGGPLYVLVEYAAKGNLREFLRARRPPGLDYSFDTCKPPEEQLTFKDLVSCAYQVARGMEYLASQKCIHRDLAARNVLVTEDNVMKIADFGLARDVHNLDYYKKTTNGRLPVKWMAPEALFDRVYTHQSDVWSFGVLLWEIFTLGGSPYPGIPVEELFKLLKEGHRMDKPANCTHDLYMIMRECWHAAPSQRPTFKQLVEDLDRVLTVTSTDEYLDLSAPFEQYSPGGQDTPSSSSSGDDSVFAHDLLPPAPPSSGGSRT
Sequence of Fyn (P06241 whole entry, looked up): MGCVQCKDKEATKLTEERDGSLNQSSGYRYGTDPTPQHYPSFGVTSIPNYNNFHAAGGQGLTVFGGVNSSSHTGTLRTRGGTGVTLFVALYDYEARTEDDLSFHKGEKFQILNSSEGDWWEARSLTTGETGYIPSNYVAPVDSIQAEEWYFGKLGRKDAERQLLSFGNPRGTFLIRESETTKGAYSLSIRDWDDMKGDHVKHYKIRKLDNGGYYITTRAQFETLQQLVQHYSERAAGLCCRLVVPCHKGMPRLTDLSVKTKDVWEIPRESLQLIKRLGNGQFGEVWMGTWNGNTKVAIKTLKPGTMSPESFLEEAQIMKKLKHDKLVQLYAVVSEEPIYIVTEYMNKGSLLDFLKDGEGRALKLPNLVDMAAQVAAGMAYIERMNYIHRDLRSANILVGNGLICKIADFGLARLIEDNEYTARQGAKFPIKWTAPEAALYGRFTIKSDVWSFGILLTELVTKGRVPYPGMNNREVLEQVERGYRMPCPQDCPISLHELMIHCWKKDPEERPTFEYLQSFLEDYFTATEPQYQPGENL
Sequence of EPHB2 (P29323 whole entry, looked up): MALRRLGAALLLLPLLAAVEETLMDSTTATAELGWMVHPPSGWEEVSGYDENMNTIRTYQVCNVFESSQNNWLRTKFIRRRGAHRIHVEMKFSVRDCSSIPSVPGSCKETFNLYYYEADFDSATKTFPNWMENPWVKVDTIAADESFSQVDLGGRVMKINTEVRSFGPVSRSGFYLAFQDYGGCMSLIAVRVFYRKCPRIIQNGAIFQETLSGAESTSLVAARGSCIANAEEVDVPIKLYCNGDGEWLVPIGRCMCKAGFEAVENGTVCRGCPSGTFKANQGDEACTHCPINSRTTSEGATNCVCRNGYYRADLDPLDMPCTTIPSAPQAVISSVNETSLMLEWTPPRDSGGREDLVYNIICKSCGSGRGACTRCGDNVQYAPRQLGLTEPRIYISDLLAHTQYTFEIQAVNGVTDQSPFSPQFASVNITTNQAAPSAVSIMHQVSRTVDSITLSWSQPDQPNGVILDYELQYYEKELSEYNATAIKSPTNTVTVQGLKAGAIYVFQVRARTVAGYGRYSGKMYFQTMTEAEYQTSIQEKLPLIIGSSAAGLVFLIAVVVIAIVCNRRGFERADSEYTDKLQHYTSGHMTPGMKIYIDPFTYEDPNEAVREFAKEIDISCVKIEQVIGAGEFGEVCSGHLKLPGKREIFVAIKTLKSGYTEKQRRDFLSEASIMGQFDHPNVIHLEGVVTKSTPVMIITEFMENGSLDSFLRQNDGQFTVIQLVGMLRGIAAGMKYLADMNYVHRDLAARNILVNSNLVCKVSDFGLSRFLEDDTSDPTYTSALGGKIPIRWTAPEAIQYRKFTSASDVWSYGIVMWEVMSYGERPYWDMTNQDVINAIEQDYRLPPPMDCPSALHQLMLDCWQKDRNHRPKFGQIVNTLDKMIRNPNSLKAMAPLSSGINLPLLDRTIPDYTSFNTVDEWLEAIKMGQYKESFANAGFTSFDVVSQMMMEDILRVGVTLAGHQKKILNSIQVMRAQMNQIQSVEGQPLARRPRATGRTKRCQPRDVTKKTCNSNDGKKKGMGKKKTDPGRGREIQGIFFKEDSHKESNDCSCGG

Sequence | phosphorylation enrichment (c-Abl (mouse)) | phosphorylation enrichment (Fes) | phosphorylation enrichment (AncSZ) | phosphorylation enrichment (FGFR1) | phosphorylation enrichment (Fyn) | phosphorylation enrichment (EPHB2) | phosphorylation enrichment (Jak2) | phosphorylation enrichment (Fer (mouse)) | phosphorylation enrichment (FGFR3) | phosphorylation enrichment (Hck) | phosphorylation enrichment (c-Src) | phosphorylation enrichment (MERTK) | phosphorylation enrichment (EPHB1) | SH2 binding enrichment (c-Src SH2) | SH2 binding enrichment (SHP2-C SH2) | SH2 binding enrichment (Grb2 SH2)
PEIIAYQPYGK [PRKCG_Y529] | 1.15 | 1.08 | 0.852 | 0.823 | 0.68 | 0.665 | 1.31 | 0.537 | 0.723 | 0.82 | 0.523 | 0.589 | 0.585 | 0.622 | 0.676 | 0.747
SGPRRYTIAAL [TTR_Y125] | 0.637 | 0.579 | 0.605 | 0.456 | 0.482 | 0.53 | 0.639 | 0.383 | 0.419 | 0.375 | 0.498 | 0.428 | 0.444 | 0.533 | 0.572 | 0.867
KNRDVYSSDYF [USP24_Y2134] | 0.656 | 0.944 | 1.1 | 2.07 | 1.19 | 4.03 | 0.945 | 0.495 | 1.15 | 1 | 2.67 | 5.77 | 3.39 | 0.644 | 0.739 | 0.796
LADKPYTFEDY [FXN_Y118] | 1.55 | 1.74 | 2.03 | 0.955 | 3.63 | 1.04 | 1.92 | 0.832 | 1.14 | 0.945 | 6.91 | 2.31 | 0.736 | 0.446 | 0.588 | 0.758
FADTAYNFRHG [PAH_Y166_I164T_YF] | 0.544 | 0.62 | 0.599 | 0.342 | 0.369 | 0.386 | 0.45 | 0.317 | 0.39 | 0.379 | 0.415 | 0.305 | 0.363 | 0.45 | 0.562 | 0.881
IDAICYYRMEN [NPHS2_Y194] | 0.927 | 1.49 | 1.99 | 3.09 | 0.66 | 0.721 | 3.15 | 0.642 | 3.18 | 0.8 | 1.71 | 0.844 | 0.786 | 0.499 | 0.534 | 0.71
VIVRMYDYHVL [RPF2_Y109_G106V] | 0.746 | 1.04 | 1.2 | 3.25 | 0.499 | 3.26 | 0.975 | 4.25 | 2.12 | 0.587 | 0.498 | 2.39 | 2.24 | 1.36 | 1.53 | 1.54
LFLASYCIGGG [UBD_Y161_C160S] | 0.886 | 1.63 | 1.22 | 1.06 | 0.416 | 0.788 | 1.21 | 0.671 | 1.04 | 0.533 | 0.495 | 0.537 | 0.655 | 0.521 | 0.815 | 0.847
RRVLVYGGRGA [QDPR_Y16] | 0.575 | 0.681 | 1.1 | 0.357 | 0.563 | 0.822 | 0.361 | 0.716 | 0.702 | 0.597 | 0.674 | 0.549 | 0.488 | 0.407 | 0.683 | 0.608
VDASYYGGRGV [ANTXR2_Y381] | 0.698 | 0.665 | 0.702 | 0.772 | 0.786 | 0.386 | 0.804 | 0.46 | 0.647 | 1.92 | 0.999 | 0.775 | 0.708 | 0.471 | 0.638 | 0.738
RIRRRYCQVLN [IQCF1_Y144] | 0.455 | 1.11 | 0.673 | 0.708 | 0.583 | 0.592 | 0.614 | 0.835 | 0.703 | 0.826 | 0.575 | 0.609 | 0.784 | 0.482 | 0.438 | 0.666
CENCHYPIVPL [LCK_Y25] | 0.567 | 0.749 | 0.698 | 0.542 | 0.463 | 0.485 | 0.643 | 0.588 | 0.58 | 0.463 | 0.454 | 0.479 | 0.63 | 0.841 | 0.58 | 0.943
FKEDPYLVVNP [MCM6_Y810_E806K_YF] | 0.815 | 1.12 | 1.19 | 1.02 | 1.06 | 0.617 | 1.13 | 0.531 | 0.89 | 0.718 | 1.98 | 0.449 | 0.441 | 0.557 | 0.753 | 0.762
MVIPNYSSWTE [UROC1_Y185_R188W] | 0.999 | 1.23 | 1.31 | 1.11 | 0.689 | 13.5 | 1.16 | 1.78 | 1.07 | 0.862 | 0.719 | 3.74 | 11.1 | 0.735 | 0.812 | 0.864
PEVCDYGLGGG [GSTO1_Y239_A236V] | 0.726 | 1.07 | 1.6 | 0.689 | 0.965 | 0.812 | 1.03 | 0.807 | 0.803 | 0.765 | 0.611 | 0.837 | 0.575 | 0.562 | 1.16 | 1.05
SENFTYIWWLN [PSG4_Y271_K267E_YF] | 0.96 | 1.59 | 1.47 | 0.543 | 0.513 | 0.771 | 1.46 | 0.674 | 1.03 | 0.559 | 0.355 | 0.404 | 0.73 | 0.439 | 0.563 | 0.715
DQNVEYKGTVW [FHL1_Y117] | 0.843 | 1.17 | 0.95 | 0.455 | 0.496 | 0.545 | 0.938 | 0.425 | 0.755 | 0.466 | 0.488 | 0.496 | 0.558 | 0.424 | 0.577 | 0.866

Sequence | phosphorylation enrichment (c-Abl (mouse)) | phosphorylation enrichment (Fes) | phosphorylation enrichment (AncSZ) | phosphorylation enrichment (FGFR1) | phosphorylation enrichment (Fyn) | phosphorylation enrichment (EPHB2) | phosphorylation enrichment (Jak2) | phosphorylation enrichment (Fer (mouse)) | phosphorylation enrichment (FGFR3) | phosphorylation enrichment (Hck) | phosphorylation enrichment (c-Src) | phosphorylation enrichment (MERTK) | phosphorylation enrichment (EPHB1) | SH2 binding enrichment (c-Src SH2) | SH2 binding enrichment (SHP2-C SH2) | SH2 binding enrichment (Grb2 SH2)
SRDDDYETIAM [NPY1R_Y347] | 0.977 | 1.28 | 1.75 | 0.599 | 0.612 | 1.03 | 1.16 | 1.11 | 0.753 | 0.737 | 0.562 | 0.5 | 1.31 | 0.8 | 0.789 | 0.979
VIKDKYPQARY [APTX_Y209_K211Q] | 0.523 | 0.569 | 0.498 | 0.358 | 0.363 | 0.394 | 0.554 | 0.42 | 0.453 | 0.373 | 0.43 | 0.377 | 0.401 | 0.532 | 0.66 | 0.888
DELDKYSEVLK [TPM1_Y60_A63V] | 0.907 | 1.66 | 1.49 | 0.616 | 0.599 | 0.603 | 1.37 | 0.624 | 0.923 | 0.558 | 0.62 | 0.48 | 0.667 | 1.72 | 0.665 | 0.837
QDRDLYPCPGT [RLF_Y671] | 0.863 | 1.37 | 1.05 | 0.484 | 0.936 | 0.693 | 1.1 | 0.687 | 0.878 | 0.429 | 0.613 | 0.751 | 0.71 | 0.644 | 0.717 | 1.11
DLLNSYIENEG [HSPA4L_Y600] | 0.585 | 0.999 | 0.996 | 0.528 | 0.53 | 0.561 | 1.17 | 0.545 | 0.875 | 0.484 | 0.343 | 0.375 | 0.573 | 0.693 | 0.656 | 1.04
QFQEKYKQMEQ [HCN4_Y531_V534M_YF] | 0.976 | 1.87 | 1.24 | 0.654 | 0.93 | 0.576 | 1.36 | 0.502 | 1.05 | 1.53 | 0.366 | 0.554 | 0.608 | 0.472 | 0.956 | 0.844
DRPASYKKKSM [PDGFRA_Y768] | 0.546 | 0.517 | 0.383 | 0.324 | 0.365 | 0.367 | 0.494 | 0.306 | 0.347 | 0.39 | 0.409 | 0.418 | 0.343 | 0.412 | 0.962 | 0.803
EVTLTYATGIK [NFKB1_Y485_T489I] | 0.66 | 1.15 | 0.896 | 0.421 | 0.477 | 0.424 | 1.06 | 0.473 | 0.634 | 0.555 | 0.508 | 0.404 | 0.475 | 0.413 | 0.646 | 0.916
PDDPNYSLVDD [PSTPIP2_Y323] | 0.8 | 1.81 | 2.13 | 1.06 | 1.15 | 1.49 | 1.4 | 1.07 | 1.31 | 1.11 | 0.603 | 0.662 | 1.09 | 1.42 | 0.822 | 1.11
PLYRKYWPNHI [GREB1L_Y1560] | 1.05 | 1.34 | 1.48 | 1.15 | 1.07 | 0.645 | 0.95 | 0.84 | 1.07 | 1.11 | 0.882 | 0.708 | 0.813 | 0.822 | 1.24 | 1.09
DENRFYTRAAS [RPS19_Y54_W52R] | 0.684 | 0.907 | 1.01 | 0.515 | 0.488 | 0.478 | 0.721 | 0.478 | 0.644 | 0.466 | 0.494 | 0.45 | 0.497 | 0.876 | 0.789 | 1.11
EWLRGYLENGK [HLA-C_Y195_R194G] | 0.97 | 0.921 | 0.844 | 0.481 | 0.464 | 0.683 | 0.777 | 0.436 | 0.601 | 0.483 | 0.481 | 0.394 | 0.51 | 0.43 | 1.06 | 0.871
DVFVSYDFGKS [SORL1_Y139_YF] | 0.78 | 0.907 | 0.939 | 0.416 | 0.383 | 0.595 | 0.906 | 0.485 | 0.598 | 0.636 | 0.468 | 0.437 | 0.452 | 0.464 | 0.641 | 0.863
KQMEQYMSFHK [HCN1_Y417_V414M] | 0.416 | 0.573 | 0.5 | 0.408 | 1.47 | 0.369 | 0.516 | 0.313 | 0.547 | 4.18 | 1.76 | 0.419 | 0.393 | 0.576 | 0.429 | 0.822
EPSLVYMVTKI [CPS1_Y768_D767V] | 0.89 | 1.16 | 1.16 | 0.543 | 0.808 | 0.534 | 1.04 | 1.7 | 0.741 | 1.26 | 1.45 | 0.454 | 0.575 | 0.482 | 0.531 | 0.769
KKARAYRPGIE [FLNA_Y287_G288R] | 0.455 | 0.45 | 0.499 | 0.299 | 0.338 | 0.417 | 0.565 | 0.31 | 0.357 | 0.323 | 0.449 | 0.371 | 0.289 | 0.469 | 0.606 | 0.761
